The values below come from patent US20250114467A1 (SHANGHAI FUDAN ZHANGJIANG BIO PHARMACEUTICAL, published 2025).

This assay concerns the target T1, human DLL4 (purchased from Acro, DL4-H5227) (human, UniProt Q9NR61 27-524).
T1 construct: Bought; also called hDLL4
The assay is described as follows: ELISA, plate-coated protein 1 µg/ml. Here is the method:
The chimeric antibodies obtained in Example 6 were evaluated for their binding abilities to human DLL1 (purchased from Acro, DL1-H52H8) and DLL4 (purchased from Acro, DL4-H5227) proteins using the ELISA method. The ELISA detection method involved diluting DLL1 and DLL4 proteins with PBS to a final concentration of 1 μg/ml and coating them onto 384-well ELISA plates (purchased from Corning, 3700) at 4° C. overnight. The next day, the supernatant in the plate wells was discarded, and the wells were blocked with 80 μl of 3% milk (dissolved in PBS) for 2 hours, followed by washing three times with 80 μl of PBST (0.1% Tween20). […] After washing with 80 μl of PBST (0.1% Tween20) for five times, 25 μl of HRP-labeled goat anti-human secondary antibody (Jackson, 1:10000) was added to each well and incubated at room temperature for 1 hour, discard the supernatant, and the wells were then washed seven times with 80 μl of PBST (0.1% Tween20). After adding 25 μl of TMB chromogen solution for 10 minutes, the reaction was terminated with 2M HCl, and the absorbance value at 450 nm was measured with a Microplate reader (purchased from Biotek, Elx808). […] To assess the cross-reactivity of the antibodies with mouse and monkey DLL3, mouse DLL3-expressing plasmid pCMV3-mDLL3 (purchased from Beijing Yiqiao, MG58052-UT) and monkey DLL3-expressing plasmid pCMV3-rheDLL3 (purchased from Beijing Yiqiao, CG90919-UT) were used to construct overexpressing cell lines. The construction of overexpressing cells was as described in Examples 2-3. The binding abilities of the chimeric antibodies to these cells were determined by flow cytometry to assess the cross-reactivity of the antibodies with different species.
Background: An ELISA detects its analyte on a solid surface through an enzyme-linked reagent.

T1 sequence (Q9NR61 27-524 limits assumed): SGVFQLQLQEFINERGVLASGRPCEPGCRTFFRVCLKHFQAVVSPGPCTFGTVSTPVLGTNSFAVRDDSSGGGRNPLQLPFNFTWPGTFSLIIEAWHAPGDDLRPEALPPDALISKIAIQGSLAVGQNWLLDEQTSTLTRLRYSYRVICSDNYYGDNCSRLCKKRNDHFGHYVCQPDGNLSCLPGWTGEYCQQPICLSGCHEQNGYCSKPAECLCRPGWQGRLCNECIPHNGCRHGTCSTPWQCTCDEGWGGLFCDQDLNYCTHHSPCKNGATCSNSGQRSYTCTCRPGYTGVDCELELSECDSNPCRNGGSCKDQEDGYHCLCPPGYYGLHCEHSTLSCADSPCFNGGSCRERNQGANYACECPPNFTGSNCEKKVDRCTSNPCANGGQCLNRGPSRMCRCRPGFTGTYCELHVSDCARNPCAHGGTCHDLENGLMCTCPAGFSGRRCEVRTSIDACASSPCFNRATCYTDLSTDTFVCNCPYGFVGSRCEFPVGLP

B1: ch23G2 (antibody, human IgG1, kappa, V domains shown)
VH: QVQLQQSGPELVRPGVSVKISCKGSGYTFTDYAIHWVKQSRAKSPEWIGIVSTDSGKTSFNQKFKGKATMTVDKSSTTAYMELVRLTSEDSAIYYCARNPYYDYDGYAMDYWGQGTSVTVSS
VL: DIQMTQSSSYLSVSLGGRVTIICKASDHINNWLAWYQQKPGNAPRLIISGATSLETGVPSRFSGSGSGKDYTLSITSLQTEDVATYYCQQYWSIPYTFGGGTKLEIKR
notes: Chimeric: murine variable regions on human IgG1 heavy and kappa light constant regions; also called chimeric antibody 23G2
B1: the binding result is given as “no binding (tested: up to 20 µg/ml)”.

B2: ch10B1 (antibody, human IgG1, kappa, V domains shown)
VH: DVKLVESGGGLVKPGGSLKLSCAASGFTFSNYTISWVRQTPEKRLEWVATFSSGGSYTYYSDSVKGRFTISRDNAKNTLYLQMSSLKSEDTAMYYCSRDRRSDGYYHLYAMDYWGQGTSVTVSS
VL: DIQMTQTTSSLSASLGDRVTISCRASQDISHYLNWYQQKPDGTVKLLIYYTSRLHSGVPSRFSGSGSGTAYSLTISNLEQEDIATYFCQQGYTLPLTFGAGTKLELKR
notes: Chimeric: murine variable regions on human IgG1 heavy and kappa light constant regions; also called chimeric antibody 10B1
On to B2, for which the binding result was “no binding (tested: up to 20 µg/ml)”.
